Non-standard residues stand in square brackets, D forms with d. pT = C[C@@H](OP(=O)(O)O)[C@H](N)C(=O)O; pS = N[C@@H](COP(=O)(O)O)C(=O)O
B1: Plx1-PBD WT (polo-box domain of Plx1) (domain or fragment, Xenopus laevis, UniProt P70032 362-598, looked up)
chain: EPADCYLSEMLQQLTCLNAVKPSERALIRQEEAEDPASIPIFWISKWVDYSDKYGLGYQLCDNSVGVLFNDSTRLIMYNDGDSLQYIERNNTESYLNVRSYPTTLTKKITLLKYFRNYMSEHLLKAGANTTPREGDELARLPFLRTWFRTRSAIILHLSNGTVQINFFQDHTKIILCPLMAAVSYIDEKREFRTYKLSLIQEFGCCKELASRLRYARTMVEKLQSSKSAVAHVKASA
notes: Plx1, Xenopus laevis, polo-box domain, amino acids 362-598; 3xFlag is PreScission-cleavable, His6 TEV-cleavable; cleavage is not reported; also called WT Plx1-PBD; source: E. coli BL21-CodonPlus (DE3), purified (Ni-NTA agarose)
B5: MBP-fused Apc1-loop^500 WT fragment (domain or fragment, Xenopus tropicalis, UniProt Q08D52 515-584, looked up)
chain: GLAAPSLGMSNPMPRPSTPLESISTPAKPLNKHLAPMDEAGMLSPVPELRDSTRLHESTYLDDCTFHQFG
notes: Apc1 (APC/C subunit 1), Xenopus tropicalis, loop^500, residues 515-584; Added unphosphorylated; becomes phosphorylated at CDK sites T532, T539 and S558 when incubated in anaphase egg extracts; MBP is PreScission-cleavable and His6 TEV-cleavable; also called MBP-Apc1-loop^500; CDK^- Apc1-loop^500; source: recombinant, purified as described previously (Fujimitsu & Yamano, 2020); not shown: MBP, …

Key:
Settings in all cases: both partners purified
[1] = target: B5; experiment: pull-down; MBP-fused Apc1-loop^500 on amylose beads incubated in anaphase extracts at 23°C for 1 h, then purified Plx1-PBD (10 µg or indicated amounts) added to the extract for 15 min; bound proteins by SDS-PAGE and Coomassie staining
[2] = target: B1; experiment: pull-down; purified proteins only: MBP-fused Apc1-loop^500 incubated with or without purified Cdk2/cyclin A (30°C, 2 h, 1 mM ATP), bound to amylose beads, incubated with Plx1-PBD at 4°C (on ice) for 10 min in XB^CSF with 0.01% NP-40 without EGTA; Coomassie staining
[3] = target: B1; experiment: pull-down; dissociation assay: Plx1-PBD/MBP-Apc1-loop^500 complexes formed in anaphase extracts, isolated on amylose beads and incubated with (78 nM) or without purified PP2A-B56γ at 23°C for 30 or 60 min; PBD left on the beads by Coomassie staining
[4] = target: B1; experiment: pull-down; MBP-fused Apc1-loop^500 on amylose beads incubated in anaphase extracts at 23°C for 1 h, then purified Plx1-PBD (10 µg or indicated amounts) added to the extract for 15 min; bound proteins by SDS-PAGE and Coomassie staining

For B1, the “stoichiometry N” value [1] was > 1 Plx1-PBD per Apc1-loop^500.

B2: MBP-fused Apc1-loop^500 WT phosphorylated by Cdk2/cyclin A (domain or fragment, Xenopus tropicalis, UniProt Q08D52 515-584, looked up)
chain: GLAAPSLGMSNPMPRPSTPLESIS[pT]PAKPLNKHLAPMDEAGML[pS]PVPELRDSTRLHESTYLDDCTFHQFG
modifications: not fully specified (residue 18, N-terminus); also: MBP fusion, pT532 only in upper of two bands (partial), phosphorylated in vitro by Cdk2/cyclin A
notes: Apc1, Xenopus tropicalis, loop^500, residues 515-584; After phosphorylation the protein runs as two bands; only the upper one carries pT532; also called Apc1-loop^500 (CDK^+); phosphorylated MBP-Apc1-loop^500; source: recombinant, purified, then phosphorylated in vitro with purified Cdk2/cyclin A at 30°C for 2 h; not shown: MBP, N-terminal, kept
B2: binds [2].

B3: MBP-fused Apc1-loop^500 T532A phosphorylated by Cdk2/cyclin A (domain or fragment, Xenopus tropicalis, UniProt Q08D52 515-584, looked up)
chain: GLAAPSLGMSNPMPRPSAPLESISTPAKPLNKHLAPMDEAGMLSPVPELRDSTRLHESTYLDDCTFHQFG
modifications: also: MBP fusion, phosphorylated in vitro by Cdk2/cyclin A, sites not given here
notes: Apc1, Xenopus tropicalis, loop^500, residues 515-584; source: recombinant, purified, then phosphorylated in vitro with purified Cdk2/cyclin A; not shown: MBP, N-terminal, kept
B3: binds [2].

B4: MBP-fused Apc1-loop^500 E562A (domain or fragment, Xenopus tropicalis, UniProt Q08D52 515-584, looked up)
chain: GLAAPSLGMSNPMPRPSTPLESISTPAKPLNKHLAPMDEAGMLSPVPALRDSTRLHESTYLDDCTFHQFG
notes: Apc1, Xenopus tropicalis, loop^500, residues 515-584; source: recombinant, purified as described previously (Fujimitsu & Yamano, 2020); not shown: MBP, N-terminal, kept
B4: binds [3].

B5: binds [4].

Reference: publication PMC8441438, “Dynamic regulation of mitotic ubiquitin ligase APC/C by coordinated Plx1 kinase and PP2A phosphatase action on a flexible Apc1 loop” (The EMBO Journal, 2021)
